Laboratory results published in the supplement of paper PMC10724198.
± gives the standard deviation of the averaged measurements.

Tested on: Saccharomyces cerevisiae
Experiment: protein stability index of tFT-peptide fusion (C-terminal peptide) (PSI (0-1 scale)); higher = more stable (slower turnover)
Conditions: genetic background: wild type; temperature: 30 C
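Note: PSI is a weighted mean of sequencing reads over stability bins, variants kept only with over 10 reads, mCherry proximal and sfGFP distal, peptide attached via GGGS linker.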

Row | Sequence | protein stability index
1 | SVSPPLSFPPSR | 0.706 ± 0.022
2 | SVTLSVSCPMLR | 0.708 ± 0.024
3 | SVVRKDNKLHTV | 0.596 ± 0.035
4 | SVWSSIMSVSFL | 0.6179 ± 0.00082
5 | SVYLPLGVLQCI | 0.577 ± 0.032
6 | SWGCSMAKVWVR | 0.585 ± 0.038
7 | SWGEVRRRGCSV | 0.637 ± 0.0065
8 | SWLASASGSHLI | 0.74 ± 0.015
9 | SWSAVPHSPLMP | 0.823 ± 0.068
10 | SWVDGGVRRCGV | 0.662 ± 0.019
11 | SYGPSRPARVPS | 0.695 ± 0.05
12 | SYGRECCGYASA | 0.764 ± 0.081
13 | SYLLPHTRFCFL | 0.674 ± 0.034
14 | SYRTCIRHSNAP | 0.7655 ± 0.0074
15 | SYRWAFPGVFSG | 0.678 ± 0.031
16 | SYVAERVMSRMV | 0.65 ± 0.0087
17 | SYVLLLYTGCRM | 0.585 ± 0.02
18 | SYWARCVHTTIA | 0.669 ± 0.02
19 | TARRAAARSSQL | 0.742 ± 0.03
20 | TAVGRKWCGRVL | 0.695 ± 0.028
21 | TAYPPAPFRRIN | 0.492 ± 0.057
22 | TCHPLCSSSADR | 0.712 ± 0.039
23 | TCLDVFACYASF | 0.666 ± 0.017
24 | TCRYSSIVDKGS | 0.612 ± 0.008
25 | TCSSQMSSNFRF | 0.638 ± 0.033

Row | Sequence | protein stability index
26 | TDGVVRPQRQAT | 0.69 ± 0.0093
27 | TDLPTSMHETRN | 0.695 ± 0.028
28 | TDLSLSPAALRH | 0.717 ± 0.1
29 | TDLSPFPALFSL | 0.766 ± 0.15
30 | TDNVVAEKRKSK | 0.701 ± 0.18
31 | TDPKLTRTHENE | 0.674 ± 0.014
32 | TEGKPQVDPFDH | 0.704 ± 0.076
33 | TEGMISSHRVIH | 0.727 ± 0.058
34 | TEKAEVSTSSCR | 0.71 ± 0.033
35 | TEKERSKKDELK | 0.673 ± 0.064
36 | TEKWTRSSPMTR | 0.764 ± 0.087
37 | TELCPPDTPTGD | 0.6921 ± 0.0016
38 | TELRRRVGYVAL | 0.663 ± 0.032
39 | TEPHSDQPKKNA | 0.701 ± 0.14
40 | TETFARTATRRP | 0.587 ± 0.022
41 | TFGGLRVGFSSL | 0.684 ± 0.028
42 | TFHCGPFRLFSC | 0.6545 ± 0.0055
43 | TFLQRFCVGLAL | 0.654 ± 0.041
44 | TFLVDLLSLFFL | 0.65 ± 0.046
45 | TFRRFKVQQLGN | 0.561 ± 0.023
46 | TGAALPRPGPAL | 0.659 ± 0.031
47 | TGDIKYYKDKLE | 0.639 ± 0.0097
48 | TGDTIQNTNCEM | 0.689 ± 0.027
49 | TGFGSLWCRSSG | 0.743 ± 0.062
50 | TGFGVQRKECGT | 0.629 ± 0.0066

Row | Sequence | protein stability index
51 | TGLRLFRPLSLP | 0.776 ± 0.069
52 | TGMRKDLVVSFW | 0.728 ± 0.051
53 | TGSAIVPHQVPS | 0.653 ± 0.015
54 | TGVRTVCDVGRW | 0.6648 ± 0.004
55 | TGWRGVLGLGPG | 0.674 ± 0.02
56 | THHQDGGRAAVR | 0.67913 ± 0.00062
57 | THPLPAPAPLRP | 0.762 ± 0.027
58 | THPPSLAPPRKA | 0.712 ± 0.0074
59 | THVPPSPIPPIM | 0.675 ± 0.0099
60 | THYFNIKCSQTK | 0.665 ± 0.013
61 | THYSTQPKSTKC | 0.689 ± 0.027
62 | TIGVTCSRLGRG | 0.685 ± 0.014
63 | TIIGLVSANEYL | 0.582 ± 0.1
64 | TIKSATLVSFST | 0.671 ± 0.072
65 | TILPDYTSRILA | 0.62 ± 0.012
66 | TIRFWRSIFPHA | 0.728 ± 0.051
67 | TISRRSCGPAQK | 0.6743 ± 0.0041
68 | TKDRGRVYRQRG | 0.798 ± 0.051
69 | TKERERAAGKKT | 0.7005 ± 0.0067
70 | TKIKKKKNKKQE | 0.731 ± 0.0013
71 | TKKETRDKKVER | 0.721 ± 0.0086
72 | TKKIKTDTEENN | 0.701 ± 0.043
73 | TKRKKKTQEGSR | 0.698 ± 0.045
74 | TKRKKLEIGFLR | 0.625 ± 0.079
75 | TKTCPMGVIEIC | 0.656 ± 0.0013

Row | Sequence | protein stability index
76 | TKWYDSSKKTNK | 0.688 ± 0.075
77 | TLDGEAILVIYI | 0.5944 ± 0.0051
78 | TLENEKKKKRNT | 0.704 ± 0.084
79 | TLGGRPFQGTPA | 0.698 ± 0.016
80 | TLGYLPLRSLKI | 0.641 ± 0.046
81 | TLIPPLLRNALP | 0.713 ± 0.0066
82 | TLMLVTGLSTEV | 0.662 ± 0.01
83 | TLPARTIHTTGH | 0.717 ± 0.028
84 | TLPPPRPSPSSP | 0.689 ± 0.035
85 | TLPSRSPAPLPH | 0.643 ± 0.021
86 | TLRRPMQVPLGH | 0.633 ± 0.04
87 | TLSLGCVDSHGV | 0.696 ± 0.036
88 | TLTHKSVRLVVK | 0.57119 ± 0.00034
89 | TLVNPFYRRFNL | 0.739 ± 0.03
90 | TLVSCRLVPSSR | 0.671 ± 0.056
91 | TMFTISGWPLFG | 0.633 ± 0.044
92 | TMTGSGRGEKWE | 0.733 ± 0.1
93 | TNGPSVWYFLVL | 0.575 ± 0.052
94 | TNNKKTRNHTSK | 0.704 ± 0.03
95 | TNSGLGTGRRSA | 0.768 ± 0.02
96 | TNSPTVSGCLQQ | 0.716 ± 0.07
97 | TNSYRTSVRGER | 0.795 ± 0.013
98 | TNTPVYRQAPQM | 0.657 ± 0.02
99 | TPFLRGTDKTTP | 0.662 ± 0.068
100 | TPLSDQLVPFGC | 0.708 ± 0.082

Row | Sequence | protein stability index
101 | TPPALPPPSPPA | 0.68516 ± 0.00038
102 | TPPATFCVPPPH | 0.719 ± 0.053
103 | TPPLARPSPTAL | 0.534 ± 0.12
104 | TPPPLPSPAPRP | 0.715 ± 0.062
105 | TPPPSPPQPLPP | 0.642 ± 0.043
106 | TPPVPPHPRSLL | 0.774 ± 0.11
107 | TPQLSYYKGNNL | 0.639 ± 0.013
108 | TPRPPPLPPRPP | 0.603 ± 0.029
109 | TPRPPQPGLSRT | 0.67 ± 0.027
110 | TPRRPPATPAPC | 0.653 ± 0.025
111 | TPSSPSARHPPP | 0.715 ± 0.036
112 | TPTDPLSLYAFP | 0.69 ± 0.013
113 | TPTSLRLSSLSP | 0.648 ± 0.036
114 | TPVLATAPQGQS | 0.71 ± 0.063
115 | TPWQTREVTRAR | 0.691 ± 0.057
116 | TQGPTAPADPCS | 0.67049 ± 0.00033
117 | TQSEHRTIPKSG | 0.663 ± 0.0089
118 | TQTLLQRTYREG | 0.722 ± 0.09
119 | TRCLPPPVPPSL | 0.729 ± 0.014
120 | TRDVLWHCWVLS | 0.514 ± 0.08
121 | TRGAPHHSSGRG | 0.693 ± 0.033
122 | TRLLAWGVVGLF | 0.633 ± 0.086
123 | TRPHASPPPPPP | 0.695 ± 0.024
124 | TRPIGSPPSPAK | 0.702 ± 0.017
125 | TRRPTPPSRASL | 0.718 ± 0.049

Row | Sequence | protein stability index
126 | TRSLPPELTPRR | 0.705 ± 0.021
127 | TRSTKIVVEGSG | 0.736 ± 0.085
128 | TRVAYINRGETR | 0.78 ± 0.2
129 | TRVKRQFRRGGI | 0.686 ± 0.011
130 | TRYRQKRMSITT | 0.581 ± 0.014
131 | TSASLFPLGPFR | 0.666 ± 0.02
132 | TSCIVVRGGRNG | 0.6453 ± 0.0041
133 | TSDVGWVPAGSE | 0.656 ± 0.043
134 | TSETLLTLSTLT | 0.669 ± 0.04
135 | TSHMKASANDTL | 0.687 ± 0.11
136 | TSLFVAGRVWRS | 0.703 ± 0.014
137 | TSLGSFLCGMCR | 0.6506 ± 0.0046
138 | TSLYGRDEETKV | 0.599 ± 0.077
139 | TSNRLDVDFPLS | 0.699 ± 0.0087
140 | TSPAPYPRPPPT | 0.723 ± 0.036
141 | TSPRILLPLNAT | 0.694 ± 0.014
142 | TSRKNRVKASVP | 0.739 ± 0.039
143 | TSRSPLVAPNPS | 0.738 ± 0.083
144 | TSSTPNALARIP | 0.71 ± 0.16
145 | TSWLHTCMKCSL | 0.728 ± 0.017
146 | TSYRNNKAKNQS | 0.756 ± 0.01
